# Assay results from patent US20220154296A1, “USE OF ANTI-PD-1 ANTIBODY IN PREPARATION OF MEDICAMENT FOR TREATING SOLID TUMORS” (Shanghai Junshi Biosciences Co., Ltd., priority 2019, published 2022).
# Columns and labels:
# CT-26 cells = assay: Inhibitory effect on tumor growth in CT-26 cell-transplanted B-hPD-1 mice; format: in vivo
# Experimental: CT-26 cells were seeded subcutaneously on the right side of hPD-1 humanized female mice at a concentration of 2.5×10^5 cells/0.1 mL, and the mice were randomly grouped by tumor volume when tumors grew to about 93 mm^3 with 7 mice per group, for a total of 4 groups:
# G1: Anti-KLH hIgG4 (1 mg/kg) negative control group;
# G3: palbociclib (100 mg/kg);
# The experiment was ended 11 days after the first administration. Tumor volume and body weight of mice were measured and recorded twice a week. At the end of the experiment, animals were euthanized and tumor growth inhibition (TGITv%) was calculated.
# [1] = ESCC patients, 3 mg/kg Q2W, n = 59
substance,measurement,setting,value
toripalimab: humanized IgG4 anti-PD-1 mAb comprising light and heavy chain amino acid sequences set forth in SEQ ID NOs: 9 and 10 (WO2014206107),TGI (%),"CT-26 cells; 11 days after the first administration, toripalimab 1 mg/kg i.p., palbociclib 100 mg/kg orally",8.0%
same,Tumor volume 11 days after the first administration,"CT-26 cells; mean ± standard error, toripalimab 1 mg/kg i.p. twice a week, palbociclib 100 mg/kg orally once a day, 7 mice per group",2519 ± 320 mm^3
same,Common TRAE: ALT elevation,59 ESCC patients,11.9%
same,Common TRAE: AST elevation,59 ESCC patients,13.6%
same,Common TRAE: anemia,59 ESCC patients,18.6%
same,Common TRAE: constipation,59 ESCC patients,10.2%
same,Common TRAE: cough,59 ESCC patients,16.9%
same,Common TRAE: fatigue,59 ESCC patients,11.9%
same,Common TRAE: fever,59 ESCC patients,16.9%
same,Common TRAE: hypothyroidism,59 ESCC patients,13.6%
same,Common TRAE: leukopenia,59 ESCC patients,15.3%
same,Common TRAE: loss of appetite,59 ESCC patients,18.6%
same,Common TRAE: low hemoglobin counts,59 ESCC patients,10.2%
same,Common TRAE: nausea,59 ESCC patients,11.9%
same,Common TRAE: total bilirubin increase,59 ESCC patients,10.2%
same,Common TRAE: weight loss,59 ESCC patients,18.6%
same,Grade 3 TRAE: anemia,59 ESCC patients,2 cases
same,Grade 3 TRAE: anorexia,59 ESCC patients,1 case
same,Grade 3 TRAE: dysphagia,59 ESCC patients,1 case
same,Grade 3 TRAE: esophageal stenosis,59 ESCC patients,1 case
same,Grade 3 TRAE: fatigue,59 ESCC patients,1 case
same,Grade 3 TRAE: hydrocardia,59 ESCC patients,1 case
same,Grade 3 TRAE: hypercalcemia,59 ESCC patients,1 case
same,Grade 3 TRAE: hypertension,59 ESCC patients,1 case
same,Grade 3 TRAE: hyponatremia,59 ESCC patients,2 cases
same,Grade 3 TRAE: leukopenia,59 ESCC patients,1 case
same,Grade 3 TRAE: neck infection,59 ESCC patients,1 case
same,Grade 3 TRAE: upper respiratory infection,59 ESCC patients,1 case
same,Grade 4 TRAE: hyperuricemia,59 ESCC patients,1 case
same,Grade 4 TRAE: paraplegia,59 ESCC patients,1 case
same,Patients permanently discontinued due to TRAE,59 ESCC patients,23.7%
same,Patients with Grade 3 and higher TRAEs,59 ESCC patients,32.2%
same,Patients with Grade 4 TRAEs,59 ESCC patients,3.4%
same,Patients with dose discontinuation due to TRAE,59 ESCC patients,10.2%
same,Patients with grade 3 TRAEs,59 ESCC patients,18.6%
same,Safety in ESCC patients (conclusion),59 ESCC patients,controlled safety
same,Treatment-related death: cachexia,59 ESCC patients,1 case
same,Treatment-related death: pneumonia,59 ESCC patients,2 cases
same,Treatment-related death: unknown etiology,59 ESCC patients,3 cases
same,Patients with treatment-related adverse events (TRAEs),"59 ESCC patients, as of Dec. 31, 2018",94.9%
same,Treatment-related deaths,"59 ESCC patients, likely unrelated to the treatment",six
same,"ALT elevation, Level 1",[1],7 (11.9) n (%)
same,"ALT elevation, Level 2",[1],0 n (%)
same,"ALT elevation, Level 3",[1],0 n (%)
same,"ALT elevation, Level 4",[1],0 n (%)
same,"ALT elevation, Level 5",[1],0 n (%)
same,"ALT elevation, Total",[1],7 (11.9) n (%)
same,"AST elevation, Level 1",[1],8 (13.6) n (%)
same,"AST elevation, Level 2",[1],0 n (%)
same,"AST elevation, Level 3",[1],0 n (%)
same,"AST elevation, Level 4",[1],0 n (%)
same,"AST elevation, Level 5",[1],0 n (%)
same,"AST elevation, Total",[1],8 (13.6) n (%)
same,"Anemia, Level 1",[1],6 (10.2) n (%)
same,"Anemia, Level 2",[1],2 (3.4) n (%)
same,"Anemia, Level 3",[1],3 (5.1) n (%)
same,"Anemia, Level 4",[1],0 n (%)
same,"Anemia, Level 5",[1],0 n (%)
same,"Anemia, Total",[1],11 (18.6) n (%)
same,"Constipation, Level 1",[1],5 (8.5) n (%)
same,"Constipation, Level 2",[1],1 (1.7) n (%)
same,"Constipation, Level 3",[1],0 n (%)
same,"Constipation, Level 4",[1],0 n (%)
same,"Constipation, Level 5",[1],0 n (%)
same,"Constipation, Total",[1],6 (10.2) n (%)
same,"Cough, Level 1",[1],6 (10.2) n (%)
same,"Cough, Level 2",[1],4 (6.8) n (%)
same,"Cough, Level 3",[1],0 n (%)
same,"Cough, Level 4",[1],0 n (%)
same,"Cough, Level 5",[1],0 n (%)
same,"Cough, Total",[1],10 (16.9) n (%)
same,"Fatigue, Level 1",[1],6 (10.2) n (%)
same,"Fatigue, Level 2",[1],1 (1.7) n (%)
same,"Fatigue, Level 3",[1],0 n (%)
same,"Fatigue, Level 4",[1],0 n (%)
same,"Fatigue, Level 5",[1],0 n (%)
same,"Fatigue, Total",[1],7 (11.9) n (%)
same,"Fever, Level 1",[1],8 (13.3) n (%)
same,"Fever, Level 2",[1],2 (3.4) n (%)
same,"Fever, Level 3",[1],0 n (%)
same,"Fever, Level 4",[1],0 n (%)
same,"Fever, Level 5",[1],0 n (%)
same,"Fever, Total",[1],10 (16.9) n (%)
same,"Hypothyroidism, Level 1",[1],5 (8.5) n (%)
same,"Hypothyroidism, Level 2",[1],3 (5.1) n (%)
same,"Hypothyroidism, Level 3",[1],0 n (%)
same,"Hypothyroidism, Level 4",[1],0 n (%)
same,"Hypothyroidism, Level 5",[1],0 n (%)
same,"Hypothyroidism, Total",[1],8 (13.6) n (%)
same,"Leukopenia, Level 1",[1],6 (10.2) n (%)
same,"Leukopenia, Level 2",[1],3 (5.1) n (%)
same,"Leukopenia, Level 3",[1],0 n (%)
same,"Leukopenia, Level 4",[1],0 n (%)
same,"Leukopenia, Level 5",[1],0 n (%)
same,"Leukopenia, Total",[1],9 (15.3) n (%)
same,"Loss of appetite, Level 1",[1],6 (10.2) n (%)
same,"Loss of appetite, Level 2",[1],4 (6.8) n (%)
same,"Loss of appetite, Level 3",[1],1 (1.7) n (%)
same,"Loss of appetite, Level 4",[1],0 n (%)
same,"Loss of appetite, Level 5",[1],0 n (%)
same,"Loss of appetite, Total",[1],11 (18.6) n (%)
same,"Low hemoglobin counts, Level 1",[1],3 (5.1) n (%)
same,"Low hemoglobin counts, Level 2",[1],3 (5.1) n (%)
same,"Low hemoglobin counts, Level 3",[1],0 n (%)
same,"Low hemoglobin counts, Level 4",[1],0 n (%)
same,"Low hemoglobin counts, Level 5",[1],0 n (%)
same,"Low hemoglobin counts, Total",[1],6 (10.2) n (%)
same,"Nausea, Level 1",[1],5 (8.5) n (%)
same,"Nausea, Level 2",[1],2 (3.4) n (%)
same,"Nausea, Level 3",[1],0 n (%)
same,"Nausea, Level 4",[1],0 n (%)
same,"Nausea, Level 5",[1],0 n (%)
same,"Nausea, Total",[1],7 (11.9) n (%)
same,"Total bilirubin increase, Level 1",[1],6 (10.2) n (%)
same,"Total bilirubin increase, Level 2",[1],0 n (%)
same,"Total bilirubin increase, Level 3",[1],0 n (%)
same,"Total bilirubin increase, Level 4",[1],0 n (%)
same,"Total bilirubin increase, Level 5",[1],0 n (%)
same,"Total bilirubin increase, Total",[1],6 (10.2) n (%)
same,"Treatment-related adverse events, Level 1",[1],13 (22.0) n (%)
same,"Treatment-related adverse events, Level 2",[1],24 (40.7) n (%)
same,"Treatment-related adverse events, Level 3",[1],11 (18.6) n (%)
same,"Treatment-related adverse events, Level 4",[1],2 (3.4) n (%)
same,"Treatment-related adverse events, Level 5",[1],6 (10.2) n (%)
same,"Treatment-related adverse events, Total",[1],56 (94.9) n (%)
same,"Weight loss, Level 1",[1],8 (13.6) n (%)
same,"Weight loss, Level 2",[1],3 (5.1) n (%)
same,"Weight loss, Level 3",[1],0 n (%)
same,"Weight loss, Level 4",[1],0 n (%)
same,"Weight loss, Level 5",[1],0 n (%)
same,"Weight loss, Total",[1],11 (18.6) n (%)
